Measured values reported in patent publication US20170362330A1.

Assays:
[1] = molecular target: human CD46 (human), P15529; test: cell-based or functional assay
[2] = molecular target: human CD46 (human) (UniProt P15529); test: FACS on Du-145 cells, 4 °C overnight, MFI curve fit
[3] = molecular target: human CD46 (human) (UniProt P15529); test: FACS on CHO cells transfected with human CD46, 4 °C overnight, MFI curve fit
[4] = molecular target: human CD46 (human) (UniProt P15529); test: FACS on CHO-huCD46 cells, 4 C overnight, MFI against antibody concentration

Sequence of human CD46 (human), P15529 (P15529 35-392): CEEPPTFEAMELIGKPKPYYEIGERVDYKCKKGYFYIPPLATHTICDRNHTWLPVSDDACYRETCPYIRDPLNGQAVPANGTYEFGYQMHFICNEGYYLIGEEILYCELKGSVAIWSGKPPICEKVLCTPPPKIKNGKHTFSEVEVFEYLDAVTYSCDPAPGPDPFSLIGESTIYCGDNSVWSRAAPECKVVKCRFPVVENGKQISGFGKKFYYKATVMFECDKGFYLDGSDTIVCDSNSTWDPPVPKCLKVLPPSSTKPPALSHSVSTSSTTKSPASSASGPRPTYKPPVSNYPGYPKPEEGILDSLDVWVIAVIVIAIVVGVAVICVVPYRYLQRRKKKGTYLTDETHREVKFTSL
Sequence of human CD46 (human) (P15529 35-392): as above

B1: YS5-mcvcpab-MMAF (protein)
VH: QVQLVQSGGGVVQPGRSLRLACAASGLTVNNYAMHWVRQAPGKGLEWVAVISYDGNNKYYADSVKGRFTISRDNSKNTLYLQMNSLRAEDTAVYYCAKGGGYFDLWGRGTLVTVSS
VL: QSVLTQPPSVSGAPGQRVTISCTGSSSNIGAGYDVHWYQQLPGTAPKLLIYGNNNRPSGVPDRFSGSKSGTSASLAITGLQAEDEADYYCSSYTSGTWLFGGGTKLTVL
modifications: here or on the partner: monomethyl auristatin F (MMAF) conjugated via the MC-vc-PAB linker, on average about 3 drugs per antibody molecule; attachment residues not stated
- EC50 of cell killing, LNCaP C4-2B cells with prior exposure to abiraterone (CD46 upregulated), 96 hours [1]: 21 pM
- EC50 of cell killing, LNCaP C4-2B cells without prior exposure to abiraterone, 96 hours [1]: 169 pM
- cytotoxic activity on H660 cells in vitro (Calcein AM viability, 7 days) [1]: < 1 nM
- fold drop of killing EC50 on H660 cells after enzalutamide treatment [1]: 4 to 5 fold

B2: YS5 (antibody, V domains shown)
VH: QVQLVQSGGGVVQPGRSLRLACAASGLTVNNYAMHWVRQAPGKGLEWVAVISYDGNNKYYADSVKGRFTISRDNSKNTLYLQMNSLRAEDTAVYYCAKGGGYFDLWGRGTLVTVSS
VL: QSVLTQPPSVSGAPGQRVTISCTGSSSNIGAGYDVHWYQQLPGTAPKLLIYGNNNRPSGVPDRFSGSKSGTSASLAITGLQAEDEADYYCSSYTSGTWLFGGGTKLTVL
- Kd [2]: 2.19 nM
- Kd [3]: 0.867 nM
- EC50 (read off the curve) [4]: 1 nM

B3: YS12 (antibody, V domains shown)
VH: QVQLVESGGGVVQPGRSLRLSCAASGFTFSTYGMHWVRQAPGKGLEWLSFISYDGDEKYYADSVKGRFTISRDNSKNTLYLQMNSLRAEDTAVYWCAKASGYGMGILDYWGQGTLVTVSS
VL: SSELTQDPAVSVALGQTVRITCQGDSLRSYYVSWFQQKPGQAPVFVMYGQNNRPSGISERFSGSSSGNTASLIITGAQAEDEADYYCHSRDSSGTHLRVFGGGTKLTVL
- Kd [2]: 0.043 nM
